Article PMC11436768 (Nature Communications, 2024)

B1: E3 subunit (dihydrolipoyl dehydrogenase) of native 2-oxoglutarate dehydrogenase complex from Sus scrofa heart (natural protein)
chain: ADQPIDADVTVIGSGPGGYVAAIKAAQLGFKTVCIEKNETLGGTCLNVGCIPSKALLNNSHYYHMAHGKDFASRGIEMSEVRLNLEKMMEQKSNAVKALTGGIAHLFKQNKVVRVNGYGKITGKNQVTATKADGSTEVINTKNILIATGSEVTPFPGITIDEDTVVSSTGALSLKKVPEKMVVIGAGVIGVELGSVWQRLGADVTAVELLGHVGGIGIDMEVSKNFQRILQKQGFKFKLNTKVIGATKKSDGNIDVSIEAASGGKAEVITCDVLLVCIGRRPFTQNLGLEELGIELDPRGRIPVNTRFQTKIPNIYAIGDVVAGPMLAHKAEDEGIICVEGMAGGAVHIDYNCVPSVIYTHPEVAWVGKSEEQLKEEGIEYKVGKFPFAANSRAKTNADTDGMVKILGQKSTDRVLGAHIIGPGAGEMINEAALALEYGASCEDIARVCHAHPTLSEAFREANLAASFGKAINF

Columns and labels:
[1] = molecular target: E1o (S. scrofa full-length E1o, GST tag cut off) (S. scrofa); assay: SPR
[2] = molecular target: the molecule itself; assay: cryo-electron tomography with subtomogram averaging

| Molecule | Kd [1] [nM] | binding result [2] |
| --- | --- | --- |
| E3 (S. scrofa full-length E3, GST tag cut off) (from UniProt P09623 36-509) (natural protein) | 1840 |  |
| B1 |  | binds |
